For experiment [1], the target named is S16L/R18S/N21K (LSK) crosslinked (disulfide-stabilised) HIV-1 CA hexamer (HIV-1). Kind of experiment: crystal structure; crosslinked CA hexamer 12 mg/ml mixed with 1-5 mM IP6; sitting-drop vapour diffusion, 17 °C, MORPHEUS I screen.
In experiment [2] the target is S16N/R18S/N21K (NSK) crosslinked (disulfide-stabilised) HIV-1 CA hexamer (HIV-1). The description is as above.

What is called stoichiometry N is the number of molecules, sites or subunits per partner or assembly. “S16L/R18S/N21K (LSK) crosslinked (disulfide-stabilised) HIV-1 CA hexamer (complex)” showed a stoichiometry N in experiment [1] of 6.
Consider “S16N/R18S/N21K (NSK) crosslinked (disulfide-stabilised) HIV-1 CA hexamer (complex)”, for which the stoichiometry N in experiment [2] is 6.

(Values after article doi:10.1101/2025.05.19.654868.)
